Experiments:
[1] = biological target: T1, human CD228 (R&D Systems Custom02; Lot DCWR021505A) (human, UniProt P08582 20-709, limits assumed); experiment: ELISA, coated human CD228, pH 7.40
T1 construct: Bought custom protein coated on ELISA plates; also called CD228 protein; melanotransferrin
T1 sequence (looked up): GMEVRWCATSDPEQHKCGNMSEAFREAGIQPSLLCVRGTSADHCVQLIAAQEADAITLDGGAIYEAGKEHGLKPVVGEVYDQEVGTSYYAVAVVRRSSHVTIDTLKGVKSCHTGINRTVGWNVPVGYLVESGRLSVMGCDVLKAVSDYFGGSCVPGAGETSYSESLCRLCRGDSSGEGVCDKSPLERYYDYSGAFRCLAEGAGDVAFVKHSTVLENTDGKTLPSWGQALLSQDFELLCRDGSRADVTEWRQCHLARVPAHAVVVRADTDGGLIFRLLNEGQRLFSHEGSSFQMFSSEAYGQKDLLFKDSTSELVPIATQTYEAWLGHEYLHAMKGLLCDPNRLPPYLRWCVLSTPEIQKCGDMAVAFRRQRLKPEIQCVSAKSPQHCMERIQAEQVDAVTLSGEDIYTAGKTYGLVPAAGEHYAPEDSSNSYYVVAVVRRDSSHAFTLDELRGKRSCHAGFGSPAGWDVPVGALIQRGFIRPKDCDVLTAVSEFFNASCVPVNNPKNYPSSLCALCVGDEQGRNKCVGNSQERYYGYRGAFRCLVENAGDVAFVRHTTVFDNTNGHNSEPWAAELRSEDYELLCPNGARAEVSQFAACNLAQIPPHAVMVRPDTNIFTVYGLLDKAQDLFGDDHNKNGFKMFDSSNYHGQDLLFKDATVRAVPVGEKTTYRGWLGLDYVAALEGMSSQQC
Experimental: (§1) Briefly, 100 ng of human CD228 (R&D Systems Custom02; Lot DCWR021505A) or BSA (Sigma; Catalog No. A7030-100G) were diluted in PBS and added to each well overnight at 4° C. Plates were then washed three times with PBS-T (EMD Millipore; Catalog No. 5246531EA). After washing, plates were blocked with 3% (w/v) BSA in PBS-T for 1 hour at room temperature. Excess blocking buffer was then removed and the primary antibody was added in 3-fold dilutions in diluent buffer (0.15M citrate-phosphate buffer pH 4.0-7.5) starting at an antibody concentration of 60 nM. After incubating for 1 hour at room temperature, the plates were washed 3 times and then incubated with secondary antibody (Goat anti-human IgG Fc-specific HRP-conjugated, Jackson ImmunoResearch code #109-035-098) in PBS-T with 1% BSA. After incubating for 30 minutes at room temperature, plates were washed 3 times. 100 μl TMB substrate (Life Technologies-, Cat #002023) was then added to each well. After incubating 10 minutes at room temperature, 100 μl H₂SO₄ was added to each well to stop the reaction, plates were covered with clear plate seal and read on an Envision at […]. pH-dependent binding for hL49 and nine variants with histidine substituted to alanine, glutamine, or tyrosine in the light chain CDRs are shown in FIG. 1A-1I. […] The triple mutants have lower affinity overall compared to hL49.

[2] = biological target: T1, human CD228 (R&D Systems Custom02; Lot …); experiment: ELISA, coated human CD228, pH 4.55
Experimental: as §1

[3] = biological target: T1, human CD228 (R&D Systems Custom02; Lot …); experiment: ELISA on CD228 protein, neutral pH (rounded form of Table 2, pH 7.40)
[4] = biological target: T1, human CD228 (R&D Systems Custom02; Lot …); experiment: ELISA, coated human CD228, pH 5.60
Experimental: as §1

[5] = biological target: T2, CD228 on A375 and A2058 cells (human, UniProt P08582 20-709); experiment: flow cytometry saturation binding on A2058 cells (~40K receptors), neutral pH
T2 construct: whole, on cells; GPI-anchored cell surface protein; also called CD228 on A375 cells; CD228 on A2058 cells
T2 sequence (looked up): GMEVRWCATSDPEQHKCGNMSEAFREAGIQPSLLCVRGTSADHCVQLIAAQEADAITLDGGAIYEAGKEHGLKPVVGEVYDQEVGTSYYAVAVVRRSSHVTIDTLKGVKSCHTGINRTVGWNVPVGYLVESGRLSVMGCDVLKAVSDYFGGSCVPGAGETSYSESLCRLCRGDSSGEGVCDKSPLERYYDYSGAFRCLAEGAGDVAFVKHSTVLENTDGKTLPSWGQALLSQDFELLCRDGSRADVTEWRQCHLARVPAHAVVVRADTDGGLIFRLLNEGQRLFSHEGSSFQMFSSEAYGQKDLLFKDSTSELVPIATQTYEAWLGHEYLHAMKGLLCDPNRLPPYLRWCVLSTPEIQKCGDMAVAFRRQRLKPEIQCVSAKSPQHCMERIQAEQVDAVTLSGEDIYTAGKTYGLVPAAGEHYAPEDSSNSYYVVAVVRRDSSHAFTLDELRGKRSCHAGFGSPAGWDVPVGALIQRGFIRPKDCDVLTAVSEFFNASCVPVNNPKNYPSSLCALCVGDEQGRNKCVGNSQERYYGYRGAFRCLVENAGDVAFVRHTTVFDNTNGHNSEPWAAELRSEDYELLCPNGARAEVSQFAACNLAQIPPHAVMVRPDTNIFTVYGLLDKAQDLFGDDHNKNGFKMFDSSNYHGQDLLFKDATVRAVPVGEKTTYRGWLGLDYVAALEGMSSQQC
Experimental: (§2) The ability of various anti-CD228 antibodies to bind to CD228 on A375 cells, A2058 cells, and CD228 protein was evaluated at neutral pH using a saturation binding assay. Briefly, 1×10⁵ A2058 or A375 cells that have either 40,000 or 18,000 copies of CD228 respectively, were aliquoted per well of a 96-well v-bottom plates. Each CD228 antibody was added in concentrations ranging from 0.66 pM to 690 nM and incubated on ice for 60 minutes. Cells were pelleted and washed 3× with PBS/BSA followed by addition of 10 μg/ml of a PE labeled anti-human IgG goat secondary antibody and incubated on ice for an additional 60 minutes. Cells were pelleted and washed 3× with PBS/BSA and resuspended in 125 μL of PBS/BSA. Fluorescence was analyzed by flow cytometry, using percent of saturated fluorescent signal to determine percent bound and to subsequently calculate apparent KID. […] The histidine 34 variants show large differences for substitutions with alanine, glutamine, and tyrosine.

[6] = biological target: T1, human CD228 (R&D Systems Custom02; Lot …); experiment: ELISA, coated human CD228, pH 6.30
Experimental: as §1

[7] = biological target: T2, CD228 on A375 and A2058 cells; experiment: flow cytometry saturation binding on A375 cells (~18K receptors), neutral pH
Experimental: as §2

- EC50 [1]: 0.72 nM
- EC50 [2]: 335 nM
- EC50 [3]: 0.7 nM
- EC50 [4]: 5.16 nM
- EC50 [5]: 0.7 nM
- EC50 [6]: 0.96 nM
- EC50 [7]: 1.1 nM
B1: hL49_27D_Tyr (antibody, V domains shown)
VH: QVQLQESGPGLVKPSETLSLTCTVSGDSITSGYWNWIRQPPGKGLEYIGYISDSGITYYNPSLKSRVTISRDTSKNQYSLKLSSVTAADTAVYYCARRTLATYYAMDYWGQGTLVTVSS
VL: DFVMTQSPLSLPVTLGQPASISCRASQSLVYSDGNTYLHWYQQRPGQSPRLLIYRVSNRFSGVPDRFSGSGSGTDFTLKISRVEAEDVGVYYCSQSTHVPPTFGQGTKLEIK
notes: hL49 variant with the light chain CDR-L1 histidine 27D changed to tyrosine
